How the values were obtained:
nucleolin (C23) [1] = target: T1, nucleolin (C23) (UniProt P19338 2-710); test: EMSA
nucleolin (C23) [2] = target: T1, nucleolin (C23); test: competition
nucleolin (C23) [3] = target: T1, nucleolin (C23); test: EMSA; remark: listed apart in the source

T1 sequence (P19338 2-710): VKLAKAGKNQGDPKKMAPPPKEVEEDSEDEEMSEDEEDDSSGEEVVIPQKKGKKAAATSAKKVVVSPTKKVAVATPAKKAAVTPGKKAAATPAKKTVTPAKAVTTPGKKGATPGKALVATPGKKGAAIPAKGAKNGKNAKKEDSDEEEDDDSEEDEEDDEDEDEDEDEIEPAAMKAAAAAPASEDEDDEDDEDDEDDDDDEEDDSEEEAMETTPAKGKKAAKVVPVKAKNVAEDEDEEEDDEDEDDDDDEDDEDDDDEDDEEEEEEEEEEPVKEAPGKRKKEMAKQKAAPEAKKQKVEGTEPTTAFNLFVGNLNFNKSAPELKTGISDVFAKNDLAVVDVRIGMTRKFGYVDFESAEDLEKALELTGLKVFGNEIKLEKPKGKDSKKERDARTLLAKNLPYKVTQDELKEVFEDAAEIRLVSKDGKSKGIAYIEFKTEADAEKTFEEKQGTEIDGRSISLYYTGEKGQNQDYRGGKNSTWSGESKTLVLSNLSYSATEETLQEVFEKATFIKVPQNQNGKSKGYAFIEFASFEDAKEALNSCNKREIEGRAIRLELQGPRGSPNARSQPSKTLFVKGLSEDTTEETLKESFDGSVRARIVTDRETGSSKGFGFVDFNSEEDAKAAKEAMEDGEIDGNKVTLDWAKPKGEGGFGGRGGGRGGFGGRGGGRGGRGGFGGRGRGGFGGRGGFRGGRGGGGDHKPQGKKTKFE

## TTGGGCGGGCCGGGGGCGGG (structured_DNA) [VEGF G4]
Nucleolin (C23) [1]
  binding result: binds

## TTGGGCGGGCCGGGGGCGGG (structured_DNA) [VEGF G4 (unlabelled)]
Nucleolin (C23) [2]
  binding result: binds

## UGCUUACGUAGCGUGCCUUA (ssRNA) [ssRNA 2]
Nucleolin (C23) [3]
  binding result: binds
